Source: patent publication US20250282890A1 (TECHNISCHE UNIVERSIT T M NCHEN, published 2025)

Assays:
[1] = biological target: T1, recombinant human PSMA (prostate-specific membrane antigen), biotin-tagged (human, UniProt Q04609 44-750, biotin tag (site not stated)); experiment: native ELISA, streptavidin-captured biotin-tagged PSMA, IgG1 titrated
T1 construct: also called biotin-tagged PSMA; biotin-labelled PSMA
Procedure: Native ELISA was used to measure affinity of 5D3-hFabs for human PSMA. Experiments were performed in 96-well MaxiSorp plates coated with streptavidin complexed with biotin-tagged PSMA. Purified 5D3-hFabs were applied in 2-fold dilution series in the concentration range of 2000 nM-0.95 pM and goat anti-human secondary antibody conjugated to horseradish peroxidase, together with the TMB substrate, was used for 5D3-hFabs detection. Data were processed using a Prism 6 software (GraphPad, San Diego, CA) and binding curves fitted using an embedded non-linear curve-fitting algorithm (FIG. 4, Table 1). Affinity of all variants tested was in a single-digit nanomolar range (1.8-2.7 nM) and virtually identical to the parent murine and chimeric Fabs, documenting successful humanization results.
Native ELISA was used to measure affinity of humanized 5D3-IgG1s for human PSMA in an experimental setup described above and binding curves together with corresponding KD values shown in FIG. 10 and Table 2, respectively. Affinity of all variants tested was in a picomolar range (260-380 pM) and virtually identical to the parent murine and chimeric full-length IgG1s, documenting successful outcome of the humanization process.

[2] = biological target: T2, human PSMA displayed on the surface of LNCaP cells (human, UniProt Q04609 1-750); experiment: flow cytometry on LNCaP cells, IgG1 titrated
T2 construct: Endogenous PSMA on living LNCaP cells; also called PSMA-positive LNCaP cells
Procedure: Flow cytometry was used to analyze affinity and specificity of 5D3-hFabs for PSMA in its physiological environment, i.e., at the surface of living cells. To this end, LNCaP and DU145 cells were used as representatives of PSMA-positive and PSMA-negative cell lines, respectively, in a protocol described previously (Novakova, Belousova et al. (2020), Int. J. Mol. Sci., 21(18):6672). Briefly, cells were treated by three-fold dilution series of 5D3-hFabs in the concentration range 6000 nM-0.42 pM. Bound 5D3-hFabs were detected by the combination of anti-Strep tag antibody and goat anti-mouse secondary antibody conjugated to Alexa Fluor 647. Cell samples were immediately analyzed using a LSRFortessa flow cytometer.
Flow cytometry was used to analyze affinity and specificity of humanized 5D3-IgG1s for PSMA in its physiological environment as described above and data are shown in FIG. 11 and Table 2.

[3] = biological target: T1, recombinant human PSMA …; experiment: ELISA on plates coated with recombinant PSMA, two-fold dilution series, goat anti-human-HRP and TMB
[4] = biological target: T1, recombinant human PSMA …; experiment: PSMA ELISA on plates coated with recombinant PSMA, two-fold dilution series, goat anti-human-HRP and TMB
Procedure: (§1) FIG. 16—Affinities of optimized full-length antibodies determined by ELISA. Plates coated with recombinant PSMA were probed with two-fold dilution series of individual antibodies and binding was visualized using goat anti-human secondary antibody conjugated to horseradish peroxidase together with the TMB substrate. Binding curves were fitted using a non-linear regression algorithm.
(§2) Also, the affinity of the optimized humanized 5D3 variants was determined by ELISA (FIG. 16, Table 4).

[5] = biological target: T1, recombinant human PSMA …; experiment: as above; remark: listed apart in the source
[6] = biological target: T1, recombinant human PSMA …; experiment: ELISA on plates coated with recombinant PSMA, column head 'ELISA (nM)'
Procedure: as §1, §2

T2 sequence (Q04609 whole entry): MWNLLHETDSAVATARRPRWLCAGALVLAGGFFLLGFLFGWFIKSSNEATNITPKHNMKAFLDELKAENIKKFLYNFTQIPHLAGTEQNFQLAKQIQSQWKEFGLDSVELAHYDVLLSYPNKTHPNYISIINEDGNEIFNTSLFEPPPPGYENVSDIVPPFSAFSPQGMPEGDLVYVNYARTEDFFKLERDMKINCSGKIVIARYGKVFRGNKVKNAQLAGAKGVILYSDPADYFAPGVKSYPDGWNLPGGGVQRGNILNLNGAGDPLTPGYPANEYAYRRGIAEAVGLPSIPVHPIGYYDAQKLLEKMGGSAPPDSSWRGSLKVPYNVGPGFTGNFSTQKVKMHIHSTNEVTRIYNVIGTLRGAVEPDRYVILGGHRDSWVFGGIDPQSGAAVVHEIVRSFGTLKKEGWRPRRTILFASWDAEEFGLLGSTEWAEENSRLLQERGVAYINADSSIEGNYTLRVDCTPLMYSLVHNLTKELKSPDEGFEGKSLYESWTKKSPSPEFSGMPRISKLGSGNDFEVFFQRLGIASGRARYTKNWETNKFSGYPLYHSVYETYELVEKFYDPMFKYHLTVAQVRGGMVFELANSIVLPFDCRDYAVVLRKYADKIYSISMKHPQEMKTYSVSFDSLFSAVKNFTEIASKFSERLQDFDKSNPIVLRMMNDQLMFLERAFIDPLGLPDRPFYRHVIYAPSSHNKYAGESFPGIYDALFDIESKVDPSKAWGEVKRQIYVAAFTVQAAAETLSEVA
T1 sequence (Q04609 44-750 limits assumed): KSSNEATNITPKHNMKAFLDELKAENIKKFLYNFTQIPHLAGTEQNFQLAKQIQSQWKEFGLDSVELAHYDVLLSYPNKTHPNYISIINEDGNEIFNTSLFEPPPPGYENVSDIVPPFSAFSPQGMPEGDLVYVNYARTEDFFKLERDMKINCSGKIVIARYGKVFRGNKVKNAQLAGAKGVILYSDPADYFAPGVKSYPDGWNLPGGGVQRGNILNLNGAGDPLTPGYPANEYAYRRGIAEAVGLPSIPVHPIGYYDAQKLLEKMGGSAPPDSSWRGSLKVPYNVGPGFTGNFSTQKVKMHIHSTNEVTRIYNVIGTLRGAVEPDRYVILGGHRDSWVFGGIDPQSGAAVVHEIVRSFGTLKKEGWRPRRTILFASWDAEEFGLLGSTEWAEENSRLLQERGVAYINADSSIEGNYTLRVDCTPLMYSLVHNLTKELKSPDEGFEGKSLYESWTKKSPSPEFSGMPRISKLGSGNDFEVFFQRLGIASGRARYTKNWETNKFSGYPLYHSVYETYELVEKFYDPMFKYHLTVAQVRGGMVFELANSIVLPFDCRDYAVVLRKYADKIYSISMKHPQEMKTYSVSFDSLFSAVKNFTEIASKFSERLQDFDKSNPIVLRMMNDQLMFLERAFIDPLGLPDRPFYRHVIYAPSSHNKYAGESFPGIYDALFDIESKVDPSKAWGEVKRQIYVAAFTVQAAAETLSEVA

Binder | Kd [1] | Kd [2] | EC50 (read off the curve) [3] | EC50 (read off the curve) [4] | EC50 (read off the curve) [5] | Kd [6]
2-5D3-IgG1 (antibody, V domains shown, also called full-length humanized 5D3 version 2) VH: QVQLVQSGAEVKKPGASVKVSCKASGYAFNTSWMNWVRQAPGQGLEYIGRIYPGDGDTNYNGKFKGKATMTADKSISTVYMEVRRLRSDDTAVYYCARGEWYLYYFDYWGQGTLVTVSS VL: DIQMTQSPSSLSASVGDRVTITCSASQGINNFLTWYQHEPGKALKLLIYYTSSLHSGVPSRFSGSGSGTDYTLTISTLQPEDFATYYCQQYSNLPFTFGGGTKVEIK | 0.26 nM | 0.64 nM | ~0.3 nM |  |  | 
6-5D3-IgG1 (antibody, V domains shown, N-glycosylation at VH N30, also called h5D3; humanized 5D3) VH: EVQLVESGGGLVQPGGSLRLSCAASGYAFNTSWMNWVRQAPGKGLEWISRIYPGDGDTNYNGKFKGKATISADKSKNTLYLQMNSLRAEDTAVYYCARGEWYLYYFDYWGQGTLVTVSS VL: DIQMTQSPSSLSASVGDRVTITCSASQGINNFLTWYQQKPGKALKLLIYYTSSLHSGVPSRFSGSGSGTDYTLTISSLQPEDFATYYCQQYSNLPFTFGQGTKVEIK | 0.38 nM | 0.56 nM | ~0.4 nM | ~0.5 nM | ~0.4 nM | 0.25 nM
5-5D3-IgG1 (antibody, V domains shown, also called full-length humanized 5D3 version 5) VH: QVQLVQSGPEVKKPGASVRLSCKASGYAFNTSWMNWVRQAPGQGLEWIGRIYPGDGDTNYNGKFKGKATMTADKSTNTAYMELRSLRSDDTAVYYCGRGEWYLYYFDYWGQGTLVTVSS VL: DIQMTQSPSSVSASVGDRVTISCSASQGINNFLTWYQQKLGKALQLLIYYTSSLHSGVPSRFSGSGSGTDYTLTISSLQPEDFATYYCQQYSNLPFTFGPGTKVDIK | 0.39 nM | 0.77 nM | ~0.4 nM |  |  | 
h5D3 variant LVg2HVg7 (antibody, human IgG1, V domains shown, Full-length human IgG1 kappa variant of h5D3 (antibody 6)) VH: EVQLVESGGGLVQPGGSLRLSCAASGYAFQTSWMNWVRQAPGKGLEWISRIYPGDGDTNYNGKFKGKATISADKSKNTLYLQMNSLRAEDTAVYYCARGEWYLYYFDYWGQGTLVTVSS VL: DIQMTQSPSSLSASVGDRVTITCSASQGIENFLTWYQQKPGKALKLLIYYTSSLHSGVPSRFSGSGSGTDYTLTISSLQPEDFATYYCQQYSNLPFTFGQGTKVEIK |  |  |  | ~0.4 nM |  | 0.37 nM
h5D3 variant LVg2HVg5 (antibody, human IgG1, V domains shown, Full-length human IgG1 kappa variant of h5D3 (antibody 6)) VH: EVQLVESGGGLVQPGGSLRLSCAASGYAFQTSWMNWVRQAPGKGLEWISRIYPGEGSTNYNAKFKGKATISADKSKNTLYLQMNSLRAEDTAVYYCARGEWYLYYFDYWGQGTLVTVSS VL: DIQMTQSPSSLSASVGDRVTITCSASQGIENFLTWYQQKPGKALKLLIYYTSSLHSGVPSRFSGSGSGTDYTLTISSLQPEDFATYYCQQYSNLPFTFGQGTKVEIK |  |  |  | ~0.4 nM |  | 0.2 nM
h5D3 variant HVg5 (antibody, human IgG1, V domains shown, Full-length human IgG1 kappa variant of h5D3 (antibody 6)) VH: EVQLVESGGGLVQPGGSLRLSCAASGYAFQTSWMNWVRQAPGKGLEWISRIYPGEGSTNYNAKFKGKATISADKSKNTLYLQMNSLRAEDTAVYYCARGEWYLYYFDYWGQGTLVTVSS VL: DIQMTQSPSSLSASVGDRVTITCSASQGINNFLTWYQQKPGKALKLLIYYTSSLHSGVPSRFSGSGSGTDYTLTISSLQPEDFATYYCQQYSNLPFTFGQGTKVEIK |  |  |  | ~0.2 nM |  | 0.06 nM
h5D3 variant LVg2HVg3 (antibody, human IgG1, V domains shown, Full-length human IgG1 kappa variant of h5D3 (antibody 6)) VH: EVQLVESGGGLVQPGGSLRLSCAASGYAFQTSWMNWVRQAPGKGLEWISRIYPGEGETNYNAKFKGKATISADKSKNTLYLQMNSLRAEDTAVYYCARGEWYLYYFDYWGQGTLVTVSS VL: DIQMTQSPSSLSASVGDRVTITCSASQGIENFLTWYQQKPGKALKLLIYYTSSLHSGVPSRFSGSGSGTDYTLTISSLQPEDFATYYCQQYSNLPFTFGQGTKVEIK |  |  |  |  | ~3 nM | 2.69 nM
h5D3 variant HVg2 (antibody, human IgG1, V domains shown, Full-length human IgG1 kappa variant of h5D3 (antibody 6)) VH: EVQLVESGGGLVQPGGSLRLSCAASGYAFQTSWMNWVRQAPGKGLEWISRIYPGDADTNYNAKFKGKATISADKSKNTLYLQMNSLRAEDTAVYYCARGEWYLYYFDYWGQGTLVTVSS VL: DIQMTQSPSSLSASVGDRVTITCSASQGINNFLTWYQQKPGKALKLLIYYTSSLHSGVPSRFSGSGSGTDYTLTISSLQPEDFATYYCQQYSNLPFTFGQGTKVEIK |  |  |  |  | ~0.4 nM | 0.34 nM
h5D3 variant HVg7 (antibody, human IgG1, V domains shown, Full-length human IgG1 kappa variant of h5D3 (antibody 6)) VH: EVQLVESGGGLVQPGGSLRLSCAASGYAFQTSWMNWVRQAPGKGLEWISRIYPGDGDTNYNGKFKGKATISADKSKNTLYLQMNSLRAEDTAVYYCARGEWYLYYFDYWGQGTLVTVSS VL: DIQMTQSPSSLSASVGDRVTITCSASQGINNFLTWYQQKPGKALKLLIYYTSSLHSGVPSRFSGSGSGTDYTLTISSLQPEDFATYYCQQYSNLPFTFGQGTKVEIK |  |  |  | ~0.4 nM |  | 0.35 nM
h5D3 variant LVg2HVg2 (antibody, human IgG1, V domains shown, Full-length human IgG1 kappa variant of h5D3 (antibody 6)) VH: EVQLVESGGGLVQPGGSLRLSCAASGYAFQTSWMNWVRQAPGKGLEWISRIYPGDADTNYNAKFKGKATISADKSKNTLYLQMNSLRAEDTAVYYCARGEWYLYYFDYWGQGTLVTVSS VL: DIQMTQSPSSLSASVGDRVTITCSASQGIENFLTWYQQKPGKALKLLIYYTSSLHSGVPSRFSGSGSGTDYTLTISSLQPEDFATYYCQQYSNLPFTFGQGTKVEIK |  |  |  |  | ~0.5 nM | 0.47 nM
h5D3 variant LVg2HVg4 (antibody, human IgG1, V domains shown, Full-length human IgG1 kappa variant of h5D3 (antibody 6)) VH: EVQLVESGGGLVQPGGSLRLSCAASGYAFQTSWMNWVRQAPGKGLEWISRIYPGEGDTNYNAKFKGKATISADKSKNTLYLQMNSLRAEDTAVYYCARGEWYLYYFDYWGQGTLVTVSS VL: DIQMTQSPSSLSASVGDRVTITCSASQGIENFLTWYQQKPGKALKLLIYYTSSLHSGVPSRFSGSGSGTDYTLTISSLQPEDFATYYCQQYSNLPFTFGQGTKVEIK |  |  |  | ~0.5 nM |  | 0.5 nM
h5D3 variant HVg4 (antibody, human IgG1, V domains shown, Full-length human IgG1 kappa variant of h5D3 (antibody 6)) VH: EVQLVESGGGLVQPGGSLRLSCAASGYAFQTSWMNWVRQAPGKGLEWISRIYPGEGDTNYNAKFKGKATISADKSKNTLYLQMNSLRAEDTAVYYCARGEWYLYYFDYWGQGTLVTVSS VL: DIQMTQSPSSLSASVGDRVTITCSASQGINNFLTWYQQKPGKALKLLIYYTSSLHSGVPSRFSGSGSGTDYTLTISSLQPEDFATYYCQQYSNLPFTFGQGTKVEIK |  |  |  | ~0.4 nM |  | 0.36 nM
h5D3 variant LVg2 (antibody, human IgG1, V domains shown, Full-length human IgG1 kappa variant of h5D3 (antibody 6)) VH: EVQLVESGGGLVQPGGSLRLSCAASGYAFNTSWMNWVRQAPGKGLEWISRIYPGDGDTNYNGKFKGKATISADKSKNTLYLQMNSLRAEDTAVYYCARGEWYLYYFDYWGQGTLVTVSS VL: DIQMTQSPSSLSASVGDRVTITCSASQGIENFLTWYQQKPGKALKLLIYYTSSLHSGVPSRFSGSGSGTDYTLTISSLQPEDFATYYCQQYSNLPFTFGQGTKVEIK |  |  |  |  | ~0.4 nM | 0.29 nM
h5D3 variant HVg3 (antibody, human IgG1, V domains shown, Full-length human IgG1 kappa variant of h5D3 (antibody 6)) VH: EVQLVESGGGLVQPGGSLRLSCAASGYAFQTSWMNWVRQAPGKGLEWISRIYPGEGETNYNAKFKGKATISADKSKNTLYLQMNSLRAEDTAVYYCARGEWYLYYFDYWGQGTLVTVSS VL: DIQMTQSPSSLSASVGDRVTITCSASQGINNFLTWYQQKPGKALKLLIYYTSSLHSGVPSRFSGSGSGTDYTLTISSLQPEDFATYYCQQYSNLPFTFGQGTKVEIK |  |  |  |  | ~0.9 nM | 0.93 nM
